# Measurements: patent US20100235935
# Positions count from the first letter of the chain named.
# What was measured:
# acetylated rPladin = system: T1, acetylated rPladin
# T1 sequence: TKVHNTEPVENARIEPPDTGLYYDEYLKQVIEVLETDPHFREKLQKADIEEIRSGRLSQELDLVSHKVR
# [1] = system: T2, pladin mutant A4 (Lys28→Ala)
# T2 sequence: T1 sequence with K28A
# [2] = system: T3, pladin mutant A5 (Lys13→Ala)
# T3 sequence: T1 sequence with R13A
# recombinant nesfatin-1 = target: T4, recombinant nesfatin-1 (UniProt P81117)
# T4 sequence: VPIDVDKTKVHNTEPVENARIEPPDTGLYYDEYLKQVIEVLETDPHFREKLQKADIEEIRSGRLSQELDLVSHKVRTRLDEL
# [3] = system: T5, recombinant pladin (plasma anti-diabetic nucb2 peptide)
# T5 sequence: T1 sequence
# plasmin, sequence (P00747 20-580): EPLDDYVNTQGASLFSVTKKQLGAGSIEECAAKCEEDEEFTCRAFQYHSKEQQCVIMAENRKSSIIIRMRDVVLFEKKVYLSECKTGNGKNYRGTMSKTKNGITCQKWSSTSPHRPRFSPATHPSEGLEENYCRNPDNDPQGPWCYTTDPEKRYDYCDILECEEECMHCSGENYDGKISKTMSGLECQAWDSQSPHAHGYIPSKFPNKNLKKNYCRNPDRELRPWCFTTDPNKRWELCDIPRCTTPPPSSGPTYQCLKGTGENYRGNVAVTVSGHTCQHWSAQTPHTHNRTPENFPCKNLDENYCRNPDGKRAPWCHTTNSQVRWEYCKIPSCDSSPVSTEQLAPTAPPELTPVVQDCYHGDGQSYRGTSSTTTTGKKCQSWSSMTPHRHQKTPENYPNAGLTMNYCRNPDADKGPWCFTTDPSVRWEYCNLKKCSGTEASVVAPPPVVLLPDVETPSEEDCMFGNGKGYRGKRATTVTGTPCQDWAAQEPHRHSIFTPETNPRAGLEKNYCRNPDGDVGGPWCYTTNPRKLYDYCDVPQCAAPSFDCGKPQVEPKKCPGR
# plasmin, sequence (P00747 581-810): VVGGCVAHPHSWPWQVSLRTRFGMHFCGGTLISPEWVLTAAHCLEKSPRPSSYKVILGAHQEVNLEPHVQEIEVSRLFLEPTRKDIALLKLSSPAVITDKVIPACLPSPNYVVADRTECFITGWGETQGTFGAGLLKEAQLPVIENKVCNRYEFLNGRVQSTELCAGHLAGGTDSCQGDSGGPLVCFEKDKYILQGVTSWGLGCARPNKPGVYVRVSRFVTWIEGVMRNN
substance,measurement,setting,value
plasmin,plasmin proteolysis in vitro,acetylated rPladin,resistant to plasmin proteolysis
same,plasmin proteolysis in vitro,[1],resistant to plasmin proteolysis
same,plasmin proteolysis in vitro,[2],resistant to plasmin proteolysis
same,digestion by plasmin in vitro,recombinant nesfatin-1,Nesfatin-1 was completely digested by plasmin within 2 hours
same,degradation on incubation with plasmin in vitro,[3],"when rPladin was incubated with plasmin, it was rapidly degraded"
